The source of these data is the nanobody polyreactivity screen of Harvey et al. (2022).

The nature of the data set: yeast display, Sf9 membrane polyspecificity reagent, FACS + sequencing; frameworks hold sequencing errors. Summed up:
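A synthetic nanobody library was expressed on Saccharomyces cerevisiae BJ5465 by galactose induction for 36–48 hours. The library was stained for 1 hour at 4 °C with 10% biotinylated, detergent-solubilized Sf9 membrane reagent and enriched with streptavidin microbeads before FACS. Low and high (top ~1%) gates were set on anti-HA fluorescence for expression and streptavidin fluorescence for reagent binding, and each polyreactivity label reflects the gate of origin.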
Take “QVQLVESGGGLVQAGGSLRLSCAASGSIYWYAMGWYTQAPGKERELVAAITKSGSSTYYADSVKGRFTISRDNANNTVYLQMNSLIPEDTAVYYCAARRAVSGGVRMYYWGQGTQVTVSS”: the “polyreactivity (PSR sort gate)” value is recorded as “high polyreactivity”.

Turning to “QVQLVESGGGLVQAGGSLRLSCAASGRIFYNYAMGWYRQAPGKERELVAAITGGASTYADSVKGRFTISRDNAKNTVYLQMNRLKPEDTAVYYCAVDYYTYSLASGRTRMDYWGQGTQVTVSS”, the “polyreactivity (PSR sort gate)” value is given as “high polyreactivity”.

Consider “QVQLVESGGGLVQAGGSLRISCAASGRTFSSYAMGWYRQAPGKERELVARISSSGGRTSYADSVKGRFTISRDNAKNTVYLQMNSLKPEDTAVYYCATEWSDRNDYWGQGTQVTVSS”, for which the “polyreactivity (PSR sort gate)” value is “high polyreactivity”.

As to “QVQLVESGGGLVQAGGSLRLSCAASGSTFYRYAMGWYRQAPGKERELVAAISSDGTTYYADSVKGRFTISRDNAKNTVYLQMNSLKPEDTAVYYCAKRGYYRSRRYDYWGQGTQVTVSS”, the “polyreactivity (PSR sort gate)” value is reported as “high polyreactivity”.

Regarding “QVQLVESAGGLVQAGGSLRLSCAASGSIFPWNAMGWYRQAPGKERELVAAISYSGTRTYYADSVKGRFTISRDNAKNTVYLQMNSLKPVDTAVYYCNARGYTRSYVKYDYWGQGTQVTVSS”, the “polyreactivity (PSR sort gate)” value was “high polyreactivity”.

For “QVQLVESGGGLVQAGGSLRLSCAASGRTFNYYTMGWYRQAPGKERELVAAISWSGDSTYYADSVKGRFTISRDNAKNTVYLQMNSLKPEDTAVYYCAAGYASGPRPQTAYYYWGQGTQVTVSS”, the “polyreactivity (PSR sort gate)” value is given as “low polyreactivity”.

For the sequence “QVQLVESGGGLVQAGGSLRLSCAASGRTFYLYAMGWYRQAPGKEREFVAAISWSTGSTYYADSVKGRFTISRDNAKNTVYLQMNSLKPEDTAVYYCAASTFTGYPKMYYWGQGTQVTVSS”, the “polyreactivity (PSR sort gate)” value is “high polyreactivity”.

As for “QVQHVESGVGLVQAGGRLRLSCAASGRTFSSNAMGWYRKAPGKERELVAAISSSGGRTYYADSVKGRFTISRDNAKNTVYLDMNSLKQEDTAVYYCAVVYFPIWASYPYWWEYDYWGHGTQVTVSS”, the “polyreactivity (PSR sort gate)” value is “high polyreactivity”.

With “QVQLVESGGGLVQAGGSLRLSCAASGRIFDDNAKGCYRQPPGKERELLASLTVSTGSTYYADSVKGRFTISRDTAKNTVYLQMNSLKPEDTAVYYCAAPYITPYGTYVFSSDYWGQGTQVTVSS”, the “polyreactivity (PSR sort gate)” value is listed as “low polyreactivity”.

“QVQLEESGGGIVQAGGSLRLSCAASGRIFGYYAMGWYRQAPGKERELVASIRRGTRTNYADSVKGRFTISRDNAKNTVYLQMNSLKPEDTAVYYCAATRFQFTTTPWYDYWGQGTQVTVSS”: the “polyreactivity (PSR sort gate)” value was “high polyreactivity”.

Consider “QVQLVESGGGLVQAGGSLRLSCAASGRTFSFYAMVWYRQAPGKERELVAGIDWDDGSTSYADSVKGRFTISRDNAKNTVYLQMNSLKQEDTAVCYCAADIGYDVYNDYDYWGQGTQVTVSS”, for which the “polyreactivity (PSR sort gate)” value is recorded as “low polyreactivity”.

On to “QVQLVESGGGLVQAGGSLRLSCAASGITLYWYAMGWYRPAPGKERELVAAISRRGGTTYYADSVKGRFTISRDNAKNTVYLQMNSLKPEDTAVYYCAKAPDTQTSWSRQEGNYWGQGTQVTVSS”, for which the “polyreactivity (PSR sort gate)” value is reported as “low polyreactivity”.

As to “QVQLVESGGGLVQAGGSLRLSCAASGIIFDYYAMGWYRPAPGKERELVAAINWNGGTPYYADSVKGRFTISRDYAKKTVFLQMNSLKPEDSAVYYCNTRGRYLMVDWGHGTQVTVSS”, the “polyreactivity (PSR sort gate)” value is “high polyreactivity”.

“QVQLVESGGGLVQAGGSLRLSCAASGRTFRYYVMGWYRQAPGKERELVAAISRTGGNTYYADSVKGRFTISRDNAKNTVYLQMNSLKPEDTAVYYCNTVRRPSSWRYDYWGQGTQVTVSS”: the “polyreactivity (PSR sort gate)” value is reported as “high polyreactivity”.

In the case of “QVQLVESGGGLVQAGGSLRLSCAASGSIIYIYAMGWYRQAPGKERELVAAISSGDRTNYADSVKGRFTISRDNAKNTVYLQMNSLKPEDTAVYYCAARGRGSAAKYNYWGQGTQVTVSS”, the “polyreactivity (PSR sort gate)” value was “high polyreactivity”.

Consider “QVQLVESGGGLVQAGGSLRLSCAASGSIFNRYTMGWYRQAPGKERELVAAISKRGGSTYYADSVKGRFTISRDNAKNTVYLQMNSLKPEDSAVYYCAAAAYHSGNGGGYWGQGTQVSVSS”, for which the “polyreactivity (PSR sort gate)” value is “high polyreactivity”.

Consider “QVQLVESGGGLVQAGGSLRLSSAASGSTLRRYAMGWYRQAPGKERELVAAISGSGDSTYYADSVKGRFTISRDNAKNTVYLQMNSLKPEDTAVYYCNAVYAFNGYDYWGQGTQVTVSS”, for which the “polyreactivity (PSR sort gate)” value is recorded as “low polyreactivity”.

In the case of “QVQLVESGGGLVQAGGSLRLSCAASGRIFSGYAMGWDRQAPGKERELVAAITSRSGSTYYADSVKGRFTISRDNAKNTVYLQMNSLKPEDTAVYYCAKRLYKPGNVFYSVDQSDYWGQGTQVTVSS”, the “polyreactivity (PSR sort gate)” value is reported as “low polyreactivity”.

Consider “QVQLVESGGGLVQAGGSLRLSCAASGSILYYYAMGWYRQAPGKERELVAAISWSGASTYYADSVKGRFTISRDNAKNTVYLQMNSLKPEDTAVYDCATSYTKQGFRYYYWGQGTQVTVSS”, for which the “polyreactivity (PSR sort gate)” value is on record as “high polyreactivity”.

Take “QVQLVESGGGLVQAGGSLRLSCAASGLIFYRNAMGWYRQAPGKERELVAAISKNGGNTYYADSVKGRFTISRDNAKNTVYLQMYSLKPEDTAVYYCAARELYGPFGYWGQGTQVTVSS”: the “polyreactivity (PSR sort gate)” value was “high polyreactivity”.

“QVQLVESGGGLVQAGGSLRLSCAASGRIFKYYAKGWYIQAPGKERELVAAINRDGGRTYYADSVKGRFTISRDNAKNTVYLQMNSLKPEDTAVYYCAASYGYVYTTSLDYWGQGTQVTVSS”: the “polyreactivity (PSR sort gate)” value is listed as “low polyreactivity”.

“QVQLVESGGGLVQAGGSLRLSCAASGIIFGGYDMGWYRQAPGKERELVAAISWSGGSTYYADSVKGRFTISRDNAKNTVYLQMNSLKPEDTAVYYCAAAYYAPTRDYHYWGQGTQVTVSS”: the “polyreactivity (PSR sort gate)” value was “low polyreactivity”.

Regarding “QVQLVESGGGLVQAGGSLLLSCAASGYIFWSNTMGWYRQAPGKERELVAAISQSTASTYYADSVKGRFTISRDNAKNTVYLQMNSLKPEDTAVYYCAAYYNFGDYEYDYWGQGTQVTVSS”, the “polyreactivity (PSR sort gate)” value is on record as “low polyreactivity”.

“PVQLVESGGGLVQAGGSLRLSCAACGYTFQVYAMGWYRQAPGKERELVASIRWRGGRTYYADSVKGRFTISRDNAKNTVYLKLNSLKPADTSVYYCAARQFVIYPTYYTYYYWGQGTQVTVSS”: the “polyreactivity (PSR sort gate)” value is recorded as “high polyreactivity”.

Consider “QVQLVESGGGLVQAGGSLRLSCAASGITISVNDMGWYRQAPGKERELVAAISSGDSTNYADSVKGRFTISRDNAKNTVYLQMNSLKPEDTAVYYCAALEGSLTGWQTYDYWGQGTQVSVSS”, for which the “polyreactivity (PSR sort gate)” value is on record as “low polyreactivity”.

Consider “QVQLVESGGGLVQAGGSLRISCAASGFIFRRYAMGWYRQAPGKERELVAAIRTNSGSTYYADSVKGRFTISRDNAKNTVYLQMNSLKPEDTAVYYCATGQVYRTVSWLYNYWGQGTQVTVSS”, for which the “polyreactivity (PSR sort gate)” value is listed as “high polyreactivity”.

On to “QVQLVESGGGLVQAAGSLRLSCAASGRTLGYYAMGWYRPAPGKERELVAAITRGGSTNYADSVKGRFTISRDNAKNTVYLQMNSLKPEDTAVYYCARRGGYFWLKGDYWGQGTQVTVSS”, for which the “polyreactivity (PSR sort gate)” value was “high polyreactivity”.

For “QVQLVESGGGLVQAGGSLRLSCADSGSTFPFYAMGWYSHSPGKERELVAAITSGGSTYADYVKGRFTISRDNAKNTVYLQMNSLNPEDTAVYYCAGSWPRWWRFGYWGQGTQVTVSS”, the “polyreactivity (PSR sort gate)” value is given as “low polyreactivity”.

As to “QVQLVESGGGLVQAGGSLRLSCAASGIISRYYAMGWYRQAPGKERELVASISSGVGTNYADSVKGRFTISRDNAKNTVYLQMNSLKPEDTAVYYCAARFRYYRHYYWGQGSQVTVSS”, the “polyreactivity (PSR sort gate)” value is “high polyreactivity”.

Turning to “QVQLVESGGGLVQAGGSLRLSCAASGSIFGDNAMGWYIQAPGKERELVAAITSSGVRTYYADSVKGRFTISRDNAKNTVYLQMNSLKPEDTAVYYCNADRFRRIRWYAITRSDYWGQGTQVTVSS”, the “polyreactivity (PSR sort gate)” value is listed as “high polyreactivity”.
